System: patients with hypercholesterolemia at high CV risk not adequately controlled with rosuvastatin (10 mg or 20 mg)
Conditions: in vivo

## mAb316P: human anti-PCSK9 antibody; heavy chain SEQ ID NO:5, light chain SEQ ID NO:9
  2 consecutive calculated LDL-C measurements below 25 mg/dL: 13 (12.6%) patients (%)
  General Allergic TEAEs: 11 (10.7%) patients (%)
  SOC General disorders and administration site conditions: 15 (14.6%) patients (%)
  SOC Immune system disorders: 1 (1.0%) patients (%)
  SOC Psychiatric disorders: 5 (4.9%) patients (%)
  SOC Respiratory, thoracic and mediastinal disorders: 7 (6.8%) patients (%)
  SOC Skin and subcutaneous tissue disorders: 8 (7.8%) patients (%)
  TEAE accidental overdose: 3 patients
  TEAE arthralgia: 4 patients
  TEAE constipation: 2 patients
  TEAE diarrhea: 2 patients
  TEAE dizziness: 3 patients
  TEAE fatigue: 3 patients
  TEAE hypokalaemia: 2 patients
  TEAE laceration: 3 patients
  TEAE local swelling: 2 patients
  TEAE myalgia: 4 patients
  TEAE nasopharyngitis: 4 patients
  TEAE nausea: 3 patients
  TEAE pain in extremity: 2 patients
  TEAE sciatica: 2 patients
  TEAEs: 58 (56.3%) patients (%)
  Treatment-emergent SAEs: 6 (5.8%) patients (%)
  Treatment-emergent cardiovascular events adjudicated positively: Zero
  Treatment-emergent neurocognitive disorders: 1 (1.0%) patients (%)
  Treatment-emergent neurologic disorders: 2 (1.9%) patients (%)
  discontinued study treatment early due to a treatment emergent adverse event: 5 (4.9%) patients (%)
  tolerability: well tolerated
